Measured values published in article PMC3829318.

Columns and labels:
[1] = activity after preincubation at 30 °C; settings: glycan lost; control: rKOR1 WT
[2] = anti-KOR1 immunoblot of Sf21 culture medium; settings: control: rKOR1 WT
[3] = (carboxymethyl)cellulose 4M hydrolysis, reducing sugar assay; settings: control: rKOR1 WT
[4] = Golgi processing of remaining glycopeptides, LC-ESI-MS, N. benthamiana; settings: glycan lost; control: wild-type KOR1-Fc-GFP

Protein	stability_or_folding, other: residual activity after 120 min [1]	expression_or_secretion ([2]; glycan lost)	enzymatic_activity, other: specific activity ([3]; glycan lost)	localisation_or_trafficking [4]	expression_or_secretion ([2]; glycan changed form)	enzymatic_activity, other: specific activity ([3]; glycan changed form)
KORRIGAN1 (KOR1): N345Q (protein) parent chain: MYGRDPWGGPLEINTADSATDDDRSRNLNDLDRAALSRPLDETQQSWLLGPTEQKKKKYVDLGCIIVSRKIFVWTVGTLVAAALLAGFITLIVKTVPRHHPKTPPPDNYTIALHKALKFFNAQKSGKLPKHNNVSWRGNSGLQDGKGETGSFYKDLVGGYYDAGDAIKFNFPMAYAMTMLSWSVIEYSAKYEAAGELTHVKELIKWGTDYFLKTFNSTADSIDDLVSQVGSGNTDDGNTDPNDHYCWMRPEDMDYKRPVTTCNGGCSDLAAEMAAALASASIVFKDNKEYSKKLVHGAKVVYQFGRTRRGRYSAGTAESSKFYNSSMYWDEFIWGGAWMYYATGNVTYLNLITQPTMAKHAGAFWGGPYYGVFSWDNKLAGAQLLLSRLRLFLSPGYPYEEILRTFHNQTSIVMCSYLPIFNKFNRTNGGLIELNHGAPQPLQYSVNAAFLATLYSDYLDAADTPGWYCGPNFYSTSVLRDFARSQIDYILGKNPRKMSYVVGFGTKYPRHVHHRGASIPKNKVKYNCKGGWKWRDSKKPNPNTIEGAMVAGPDKRDGYRDVRMNYNYTEPTLAGNAGLVAALVALSGEEEATGKIDKNTIFSAVPPLFPTPPPPPAPWKP	no change, at least 90 vs at least 90	no change	decreases, 271 ± 25 vs 374 ± 18	no change		
KORRIGAN1 (KOR1): N216Q/N324Q/N345Q (protein) parent chain: MYGRDPWGGPLEINTADSATDDDRSRNLNDLDRAALSRPLDETQQSWLLGPTEQKKKKYVDLGCIIVSRKIFVWTVGTLVAAALLAGFITLIVKTVPRHHPKTPPPDNYTIALHKALKFFNAQKSGKLPKHNNVSWRGNSGLQDGKGETGSFYKDLVGGYYDAGDAIKFNFPMAYAMTMLSWSVIEYSAKYEAAGELTHVKELIKWGTDYFLKTFNSTADSIDDLVSQVGSGNTDDGNTDPNDHYCWMRPEDMDYKRPVTTCNGGCSDLAAEMAAALASASIVFKDNKEYSKKLVHGAKVVYQFGRTRRGRYSAGTAESSKFYNSSMYWDEFIWGGAWMYYATGNVTYLNLITQPTMAKHAGAFWGGPYYGVFSWDNKLAGAQLLLSRLRLFLSPGYPYEEILRTFHNQTSIVMCSYLPIFNKFNRTNGGLIELNHGAPQPLQYSVNAAFLATLYSDYLDAADTPGWYCGPNFYSTSVLRDFARSQIDYILGKNPRKMSYVVGFGTKYPRHVHHRGASIPKNKVKYNCKGGWKWRDSKKPNPNTIEGAMVAGPDKRDGYRDVRMNYNYTEPTLAGNAGLVAALVALSGEEEATGKIDKNTIFSAVPPLFPTPPPPPAPWKP				no change		
KORRIGAN1 (KOR1): N425Q (protein) parent chain: MYGRDPWGGPLEINTADSATDDDRSRNLNDLDRAALSRPLDETQQSWLLGPTEQKKKKYVDLGCIIVSRKIFVWTVGTLVAAALLAGFITLIVKTVPRHHPKTPPPDNYTIALHKALKFFNAQKSGKLPKHNNVSWRGNSGLQDGKGETGSFYKDLVGGYYDAGDAIKFNFPMAYAMTMLSWSVIEYSAKYEAAGELTHVKELIKWGTDYFLKTFNSTADSIDDLVSQVGSGNTDDGNTDPNDHYCWMRPEDMDYKRPVTTCNGGCSDLAAEMAAALASASIVFKDNKEYSKKLVHGAKVVYQFGRTRRGRYSAGTAESSKFYNSSMYWDEFIWGGAWMYYATGNVTYLNLITQPTMAKHAGAFWGGPYYGVFSWDNKLAGAQLLLSRLRLFLSPGYPYEEILRTFHNQTSIVMCSYLPIFNKFNRTNGGLIELNHGAPQPLQYSVNAAFLATLYSDYLDAADTPGWYCGPNFYSTSVLRDFARSQIDYILGKNPRKMSYVVGFGTKYPRHVHHRGASIPKNKVKYNCKGGWKWRDSKKPNPNTIEGAMVAGPDKRDGYRDVRMNYNYTEPTLAGNAGLVAALVALSGEEEATGKIDKNTIFSAVPPLFPTPPPPPAPWKP	decreases, 69 vs at least 90	no change	no change, 394 ± 34 vs 374 ± 18	no change		
KORRIGAN1 (KOR1): N408Q (protein) parent chain: MYGRDPWGGPLEINTADSATDDDRSRNLNDLDRAALSRPLDETQQSWLLGPTEQKKKKYVDLGCIIVSRKIFVWTVGTLVAAALLAGFITLIVKTVPRHHPKTPPPDNYTIALHKALKFFNAQKSGKLPKHNNVSWRGNSGLQDGKGETGSFYKDLVGGYYDAGDAIKFNFPMAYAMTMLSWSVIEYSAKYEAAGELTHVKELIKWGTDYFLKTFNSTADSIDDLVSQVGSGNTDDGNTDPNDHYCWMRPEDMDYKRPVTTCNGGCSDLAAEMAAALASASIVFKDNKEYSKKLVHGAKVVYQFGRTRRGRYSAGTAESSKFYNSSMYWDEFIWGGAWMYYATGNVTYLNLITQPTMAKHAGAFWGGPYYGVFSWDNKLAGAQLLLSRLRLFLSPGYPYEEILRTFHNQTSIVMCSYLPIFNKFNRTNGGLIELNHGAPQPLQYSVNAAFLATLYSDYLDAADTPGWYCGPNFYSTSVLRDFARSQIDYILGKNPRKMSYVVGFGTKYPRHVHHRGASIPKNKVKYNCKGGWKWRDSKKPNPNTIEGAMVAGPDKRDGYRDVRMNYNYTEPTLAGNAGLVAALVALSGEEEATGKIDKNTIFSAVPPLFPTPPPPPAPWKP	no change, at least 90 vs at least 90	no change	no change, 379 ± 18 vs 374 ± 18	no change		
KORRIGAN1 (KOR1): N567Q (protein) parent chain: MYGRDPWGGPLEINTADSATDDDRSRNLNDLDRAALSRPLDETQQSWLLGPTEQKKKKYVDLGCIIVSRKIFVWTVGTLVAAALLAGFITLIVKTVPRHHPKTPPPDNYTIALHKALKFFNAQKSGKLPKHNNVSWRGNSGLQDGKGETGSFYKDLVGGYYDAGDAIKFNFPMAYAMTMLSWSVIEYSAKYEAAGELTHVKELIKWGTDYFLKTFNSTADSIDDLVSQVGSGNTDDGNTDPNDHYCWMRPEDMDYKRPVTTCNGGCSDLAAEMAAALASASIVFKDNKEYSKKLVHGAKVVYQFGRTRRGRYSAGTAESSKFYNSSMYWDEFIWGGAWMYYATGNVTYLNLITQPTMAKHAGAFWGGPYYGVFSWDNKLAGAQLLLSRLRLFLSPGYPYEEILRTFHNQTSIVMCSYLPIFNKFNRTNGGLIELNHGAPQPLQYSVNAAFLATLYSDYLDAADTPGWYCGPNFYSTSVLRDFARSQIDYILGKNPRKMSYVVGFGTKYPRHVHHRGASIPKNKVKYNCKGGWKWRDSKKPNPNTIEGAMVAGPDKRDGYRDVRMNYNYTEPTLAGNAGLVAALVALSGEEEATGKIDKNTIFSAVPPLFPTPPPPPAPWKP	no change, at least 90 vs at least 90	decreases		no change		
KORRIGAN1 (KOR1): N324Q (protein) parent chain: MYGRDPWGGPLEINTADSATDDDRSRNLNDLDRAALSRPLDETQQSWLLGPTEQKKKKYVDLGCIIVSRKIFVWTVGTLVAAALLAGFITLIVKTVPRHHPKTPPPDNYTIALHKALKFFNAQKSGKLPKHNNVSWRGNSGLQDGKGETGSFYKDLVGGYYDAGDAIKFNFPMAYAMTMLSWSVIEYSAKYEAAGELTHVKELIKWGTDYFLKTFNSTADSIDDLVSQVGSGNTDDGNTDPNDHYCWMRPEDMDYKRPVTTCNGGCSDLAAEMAAALASASIVFKDNKEYSKKLVHGAKVVYQFGRTRRGRYSAGTAESSKFYNSSMYWDEFIWGGAWMYYATGNVTYLNLITQPTMAKHAGAFWGGPYYGVFSWDNKLAGAQLLLSRLRLFLSPGYPYEEILRTFHNQTSIVMCSYLPIFNKFNRTNGGLIELNHGAPQPLQYSVNAAFLATLYSDYLDAADTPGWYCGPNFYSTSVLRDFARSQIDYILGKNPRKMSYVVGFGTKYPRHVHHRGASIPKNKVKYNCKGGWKWRDSKKPNPNTIEGAMVAGPDKRDGYRDVRMNYNYTEPTLAGNAGLVAALVALSGEEEATGKIDKNTIFSAVPPLFPTPPPPPAPWKP	no change, at least 90 vs at least 90	no change	decreases, 307 ± 8 vs 374 ± 18	no change		
KORRIGAN1 (KOR1): N216Q (protein) parent chain: MYGRDPWGGPLEINTADSATDDDRSRNLNDLDRAALSRPLDETQQSWLLGPTEQKKKKYVDLGCIIVSRKIFVWTVGTLVAAALLAGFITLIVKTVPRHHPKTPPPDNYTIALHKALKFFNAQKSGKLPKHNNVSWRGNSGLQDGKGETGSFYKDLVGGYYDAGDAIKFNFPMAYAMTMLSWSVIEYSAKYEAAGELTHVKELIKWGTDYFLKTFNSTADSIDDLVSQVGSGNTDDGNTDPNDHYCWMRPEDMDYKRPVTTCNGGCSDLAAEMAAALASASIVFKDNKEYSKKLVHGAKVVYQFGRTRRGRYSAGTAESSKFYNSSMYWDEFIWGGAWMYYATGNVTYLNLITQPTMAKHAGAFWGGPYYGVFSWDNKLAGAQLLLSRLRLFLSPGYPYEEILRTFHNQTSIVMCSYLPIFNKFNRTNGGLIELNHGAPQPLQYSVNAAFLATLYSDYLDAADTPGWYCGPNFYSTSVLRDFARSQIDYILGKNPRKMSYVVGFGTKYPRHVHHRGASIPKNKVKYNCKGGWKWRDSKKPNPNTIEGAMVAGPDKRDGYRDVRMNYNYTEPTLAGNAGLVAALVALSGEEEATGKIDKNTIFSAVPPLFPTPPPPPAPWKP	no change, at least 90 vs at least 90	no change	decreases, 244 ± 25 vs 374 ± 18	no change		
KORRIGAN1 (KOR1): kifunensine (rKOR1 KIF) (protein) parent chain: MYGRDPWGGPLEINTADSATDDDRSRNLNDLDRAALSRPLDETQQSWLLGPTEQKKKKYVDLGCIIVSRKIFVWTVGTLVAAALLAGFITLIVKTVPRHHPKTPPPDNYTIALHKALKFFNAQKSGKLPKHNNVSWRGNSGLQDGKGETGSFYKDLVGGYYDAGDAIKFNFPMAYAMTMLSWSVIEYSAKYEAAGELTHVKELIKWGTDYFLKTFNSTADSIDDLVSQVGSGNTDDGNTDPNDHYCWMRPEDMDYKRPVTTCNGGCSDLAAEMAAALASASIVFKDNKEYSKKLVHGAKVVYQFGRTRRGRYSAGTAESSKFYNSSMYWDEFIWGGAWMYYATGNVTYLNLITQPTMAKHAGAFWGGPYYGVFSWDNKLAGAQLLLSRLRLFLSPGYPYEEILRTFHNQTSIVMCSYLPIFNKFNRTNGGLIELNHGAPQPLQYSVNAAFLATLYSDYLDAADTPGWYCGPNFYSTSVLRDFARSQIDYILGKNPRKMSYVVGFGTKYPRHVHHRGASIPKNKVKYNCKGGWKWRDSKKPNPNTIEGAMVAGPDKRDGYRDVRMNYNYTEPTLAGNAGLVAALVALSGEEEATGKIDKNTIFSAVPPLFPTPPPPPAPWKP					no change	no change, 402 ± 40 vs 374 ± 18
